Source: PMC10845952, “Mass spectrometry and split luciferase complementation assays reveal the MecA protein interactome of Streptococcus mutans” (Microbiology Spectrum, 2024)

T1: MecA fused to the RenG N-terminal domain (1-155) (S. mutans, UniProt Q8DW33 1-240)
T1 construct: adaptor protein MecA; S. mutans UA159; source: S. mutans, expressed in live cells; not shown: RenG luciferase N-terminal domain (1-155), C-terminal, kept
T1 sequence: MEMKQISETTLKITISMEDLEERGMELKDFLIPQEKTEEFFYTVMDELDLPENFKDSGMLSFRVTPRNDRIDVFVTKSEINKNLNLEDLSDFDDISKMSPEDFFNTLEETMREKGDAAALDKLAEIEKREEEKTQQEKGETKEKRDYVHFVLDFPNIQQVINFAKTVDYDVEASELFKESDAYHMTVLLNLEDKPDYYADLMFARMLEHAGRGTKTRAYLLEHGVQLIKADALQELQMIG

B1: TopA fused to the RenG C-terminal domain (156-314) (natural protein, S. mutans, UniProt Q8DUD3 1-705, looked up)
chain: MTSKTTTTVKKTSKKRATPKKNLVIVESPAKAKTIEKYLGRSYKVVASVGHIRDLKKSSMSIDFDNNYEPQYINIRGKGPLINSLKKEAKNAKQIFLASDPDREGEAISWHLAHILDLDLKGKNRVVFNEITKDAVKNAFVEPRQIDMDLVDAQQARRVLDRIVGYSISPILWKKVKKGLSAGRVQSVALKLIIDRENEIKAFKPEEYWSIDGFFKKGNKKFQANFYGLDNKKTKLKSNDDVKKVLTRIKNDDFLVDKVEKKERKRNAPLPYTTSSLQQDAANKINFRTRKTMMVAQQLYEGIRLGSNGQQGLITYMRTDSTRISPVAQNDAANYITEHFGAEYSKHGNHVRNASGAQDAHEAIRPSNVNHTPESIAKYLDKDQLKLYTLIWNRFVASQMTAAVFDTVKVNLTQNGVLFIANGSQIKFKGYMAVYNDSDKTKVLPEMIKGETVKKISANPEQHFTQPPARYSEASLIKTLEENGVGRPSTYAPTLETIQKRYYVRLVSKRFEPTELGEIVNSLIIEFFPDIVDVKFTAEMESKLDEVEIGKEEWQKVIDQFYKPFEKEVIKAEEQMEKIQIKDEPAGFDCDVCGHPMVIKLGRYGKFYACSNFPDCHNTKAITKEIGVICPICQKGQVIERKTKRNRIFYGCDRYPDCDFTSWNKPIGRDCPKSGDFLVEKKIRGGGKQVVCSNEECDYKEKAVK
B2: PheT fused to the RenG C-terminal domain (156-314) (natural protein, S. mutans, UniProt Q8CWX2 1-801, looked up)
chain: MLVSYKWLKELVDIDVPSHELAEKMSTTGIEVEGVDVPAEGLSKLVVGHVLSCEDVPETHLHLCQVDTGEEESRQIVCGAPNITAGIKVIVALPGARIADNYKIKKGKIRGMESLGMICSLQELGLPDSIIPKEYSDGIQILPEDAVPGESIFPYLDLDDEIIELSITPNRADALSMRGVAHEVAAIYDKSVHFEDKVLTESDKKAADLIKVAIASDKVLTYKARVVENVTIKPSPQWLQNLLMNAGIRPINNVVDVTNYVLLYFGQPMHAFDLDKFEGKDILARQAKAGEKLVTLDGEARDLIEEDLVITVADKPVALAGVMGGAATEIDASSKNVVLEAAVFDGKSVRKTSSRLNLRSESSSRFEKGVNYADVVKALDFAAAMLTELADGTVLAGQVSAGAVPTDDIQVSTSLDYVNVRLGTDLVFSDIESVFARLGFGLSGNDEKFTVSVPRRRWDISIQADLVEEIARIYGYDKLPTTLPEAAGTVGELTKTQKLRRKIRNLAEGSGLSEIISYALTTPEKAVAFTPNPTKITELMWPMTVDRSALRQNIVSGMLDTIAYNVARKSNNLALYEIGKVFEQTADPKKDLPKEIDTFAFALTGLVTEKDFQTAATPVDFFYAKGVLEAILAKLEITVQFVATKEMANMHPGRTALIERDGQVIGYLGQVHPQTAKLYDIPETYVAEVNLNALEAALKSDLVFEDITKFPAVSRDIALLLSEKVSHQDILDAIAASGVKRLIKVKLFDVYAGEKLGVGKKSMAYSLTFQNPNDNLTDEEVAKYMEKITSALTEKVGAEVR
notes: Phenylalanine-tRNA ligase subunit beta, PheT; S. mutans UA159; not shown: RenG luciferase C-terminal domain (156-314), C-terminal, kept
B3: IlvD fused to the RenG C-terminal domain (156-314) (natural protein)
chain: not shown
notes: Dihydroxy-acid dehydratase, IlvD; S. mutans UA159; not shown: RenG luciferase C-terminal domain (156-314), C-terminal, kept
B4: GltB fused to the RenG C-terminal domain (156-314) (natural protein, S. mutans, UniProt Q8CWY8 1-478, looked up)
chain: MADPFGFLKYERKDNPYRPVNERIKDFEELQTTLSVEERQKQAARCMNCGIPFCHEGTFYGGGRAVSGCPNDNLIPEWNDLIYKGDFRRAFERLTRTNPLPEMTGRVCPAPCEKACTEGLNGSGVTIHDNERFIIDNAFEEGWVADSGRPIERTGFKVAVVGSGPAGLSAAWRLNQLGHSVTVFERSDRFGGLLMYGIPNMKLDKKIVQRRIDTMASIGINFVANTEIGRDITAEELLEKFDRVILATGASVPRDLDIPGRDLKGIRFAVDFLTETTKNLLDSDTHELPPLLEGKHVLVIGGGDTGNDCIGTAVRLGAASVRQLEITPQLPEKRLPTNPWPQYPMINRTGYGQEEADFVQQTDLTDYITSTVEFLGENGQVTAVKTIKVGPGFKAIEGTEEVIKADLVLLAMGFTGAEKALFDQFRVECVYDDYSTRNEKVFVAGDARRGPSLVIWGIREGRKTAEKIDQNLRMMVTE
B5: AlaS fused to the RenG C-terminal domain (156-314) (natural protein, S. mutans, UniProt Q8CWY0 1-872, looked up)
chain: MKQLTSAQVRQMWLDFWKSKDHAIEPSANLVPVNDPTLLWINSGVATLKKYFDGSVIPENPRITNAQKAIRTNDIENVGKTARHHTMFEMLGNFSVGDYFRDDAIKWGFELLTSPEWFDLPKDKLYMTYYPDDKDSYNRWIECGVDPSHLIPIEDNFWEIGAGPSGPDTEIFFDRGEDFDPDHIGVRLLAEDIENDRYIEIWNIVLSQFNADPAVPRSEYKELPHKNIDTGAGLERLVAVMQGAKTNFETDLFMPIIREIEKLSGKTYDQDGDNMSFKVIADHIRSLSFAIGDGALPGNEGRGYVLRRLLRRAVMHGRRLGINEPFLYKLVPTVGKIMESYYPEVLEKQDFIEKIVKREEETFARTIDAGSNMLDQLLADLKAADKDTLEGKDIFRLYDTYGFPVELTEELAEDAGFKIDHQGFQAAMKEQQERARANVVKGGSMGMQNETLSNITEKSTFNYEKEALDSSLSVIIADNKRIEAVSEGQVLLVFSETPFYAEMGGQVADHGLIKNDKGDTVARVTDVQKAPNGQALHTVDVLGSLSVGTTYHLEIDHERRNRVMKNHTATHLLHAALHNVIGNHATQAGSLNEVEFLRFDFTHFEAVTPEELRQIEEEVNQQIWKAIPVTTIETDLDTAKEMGAMALFGEKYGKNVRVVSIGDYSVELCGGTHLKNTSEIGIFKIVKEEGIGSGTRRILAVTSKEAFEAYRQEEDILKEIATTLKAPQMNQVANKVASLQDQLHKLQKENAELKEKAAAVAAGDIFKDVKEVNGLRYIASQVEVADAGALRTFADKWKQKDYSDVLVLVASIGKKVNVLVASKSKDIHAGNLIKALAPIVSGRGGGKPDMAMAGGSDASAIKDLIAAVAENL
notes: Alanine-tRNA ligase, AlaS; S. mutans UA159; not shown: RenG luciferase C-terminal domain (156-314), C-terminal, kept
B6: MnmG fused to the RenG C-terminal domain (156-314) (natural protein, S. mutans, UniProt Q8DRS6 1-631, looked up)
chain: MTHEFTENYDVIVIGAGHAGVEASLATSRMGCKTLLATINLEMLAFMPCNPSIGGSAKGIVVREIDALGGEMGKNIDKSYIQMRMLNTGKGPAVRALRAQADKALYARNMKHTVEQQENLTLRQSMIDEILVEDGKVIGVRTATNQKYSAQAVIVTTGTALRGEIILGELKYSSGPNNSLASVTLADNLRDLGLEIGRFKTGTPPRVKANSIHYDETEIQPGDKKANHFSFMSKDEDYLKDQIPCWLTYTNQSSHDIINKNLYRAPMFSGIVKGVGPRYCPSIEDKIVRFADKDRHQLFLEPEGRETEEVYIQGLSTSLPEDVQKDVVHSIKGLENAEMMRTGYAIEYDIVLPHQLRATLETKKISGLFTAGQTNGTSGYEEAAGQGIVAGINAALKIQGKPELILKRSDAYIGVMIDDLVTKGTLEPYRLLTSRAEYRLILRHDNADLRLTEIGHQVGLVNEERYMRFQIRKNQFDNELTRLSSIKLKPVAEINKRIEELGFKPLTDALTAKEFMRRPEINYAIATSFVGPAAESLDEKVIELLETEIKYEGYINKALDQVAKMKRMEEKRIPKNIDWDAIDSIATEARQKFKKINPETIGQASRISGVNPADISILMVYLEGKNRSRTR
notes: not shown: RenG luciferase C-terminal domain (156-314), C-terminal, kept
B7: ClpC with the RenG C-terminal domain (156-314) fused to its N-terminus (natural protein, S. mutans, UniProt Q8DS14 1-813, looked up)
chain: MTDYSLKMQEVFRLAQFEAARFESSYLESWHVLLAMVEIDSSVAGLSFAEFEADVRFEDYQAAAILAIGKKPKSSSNDIMLLEQSHALKRTLAEAAAISQVTHAKEVGTEHVLFAMLLNPNLLATRILELVGFHAKDDGESIRLLDLRKVIERYAGFSKEDIKAIFEMRKPKKVKNSSSFSDLMKPPSVTGELADFTRDLTELARQGRLEPVIGREQEISRMVQILSRKTKNNPVLVGDAGVGKTALAYGLAQRIVDSAVPFELADMKVLELDMMSVVAGTRFRGDFEERMNQIIADIEADGHIVLFIDELHTIMGSGSGIDSTLDAANILKPALARGSLRTIGATTQEEYQKHIEKDAALSRRFAKVTIEEPSEEEAYQILLGLKKSYETYHHVIISDAAVMAAVKGAHRYLSGKNLPDSAIDLLDEASATVQGLVKKKAPAYLTDLDHALITNDYQLAKRLLKKEKKPLLKKRAEVKEEDILATLSKLSGIPVKKLTQADSKKYLNLERELHKRVIGQDDAVSSISRAIRRNQSGIRVGKRPIGSFMFLGPTGVGKTELAKALAEVLFDDESALIRFDMSEYMEKFAASRLNGAPPGYVGYEEGGELTEKVRNKPYSVLLFDEVEKAHPDIFNILLQVLDDGVLTDSRGRKVDFSNTIIIMTSNLGATALRDDKTVGFGAKSFSQDYKAMESRILEELKKVYRPEFINRIDEKVVFHNLGQEDIRHIVKIMVAPLIAHLADQGITLKFQPSALKHLALAGYDAEMGARPLRRTLQTEVEDKLAELILSGKLASGQTLKIGIQKEKLKFDIV
notes: also called N-ClpC

target: T1, MecA fused to the RenG N-terminal …; test: split reporter (BiFC, NanoBiT); conditions: partners not purified

First: B1
Second: B2
The “relative binding affinity (%)” value of the first is lower: 8.64 ± 0.36% for the first, 17.9 ± 0.77% for the second.

Compared with B3, B4 is lower in “relative binding affinity (%)” value: 13.1 ± 0.61% for the first, 7.45 ± 0.28% for the second.

First: B5
Second: B6
The “relative binding affinity (%)” value of the first is lower: 5.5 ± 0.29% for the first, 8 ± 0.33% for the second.

With B7 the “relative binding affinity (%)” value was 55.2 ± 4.16%.
